Measured values: US20210332115A1 (Sanofi, published 2021)
Changes are numbered by the printed parent chain. Like-named read-outs stand apart in the source and are kept apart here.

B1: VH1/Vκ2 (antibody, V domains shown)
VH: EVQLVESGGGLVKPGGSLRLSCAASGFTFSNYAMSWVRQAPGKGLEWVATISNRGSYTYYPDSVKGRFTISRDNAKNSLYLQMSSLRSEDTALYYCARERPMDYWGQGTSVTVSS
VL: DIVMTQSPSTLSASVGDRVTITCKASQDVGTAVAWYQQKPGQPPKLLIYWASTRHTGVPDRFTGSGSGTDFTLTISSLQAEDFAVYFCHQHSSNPLTFGQGTKLEIK
B2: VH0/Vκ1 (control) (antibody, V domains shown)
VH: B1 VH with G10A, R19K, A40T, G42E, G44R, S78T
VL: B1 VL with T10F, A80S
B3: VH0/Vκ3 (antibody, V domains shown)
VH: B1 VH with G10A, R19K, A40T, G42E, G44R, S78T
VL: B1 VL with V3Q, T63S
notes: constant regions not restated, the humanisation used IgG4v1 heavy chain and kappa light chain vectors
B4: VH0/Vκ6 (antibody, V domains shown)
VH: B1 VH with G10A, R19K, A40T, G42E, G44R, S78T
VL: B1 VL with T10F, Q42K, P43A, A80S
notes: Control antibody of the redesign round; cloned into the appropriate expression vector (IgG4v1 and kappa were used in the first round), HEK EBNA supernatant
B5: VH0/Vκ7 (antibody, V domains shown)
VH: B1 VH with G10A, R19K, A40T, G42E, G44R, S78T
VL: B1 VL with V3Q, Q42K, P43A, T63S
notes: as for B4
B6: VH1/Vκ1 (antibody, V domains shown)
VH: B1 VH
VL: B1 VL with T10F, A80S
B7: VH1/Vκ3 (antibody, V domains shown)
VH: B1 VH
VL: B1 VL with V3Q, T63S
B8: VH1/Vκ4 (antibody, V domains shown)
VH: B1 VH
VL: B1 VL with V3Q, K24R, T63S, F87Y
B9: VH1/Vκ5 (antibody, V domains shown)
VH: B1 VH
VL: B1 VL with V3Q, K24R, T63S, V85T, F87Y
B10: VH2/Vκ1 (antibody, V domains shown)
VH: B1 VH with S84N, S88A, S110L
VL: B1 VL with T10F, A80S
B11: VH2/Vκ2 (antibody, V domains shown)
VH: B1 VH with S84N, S88A, S110L
VL: B1 VL
B12: VH2/Vκ3 (antibody, V domains shown)
VH: B1 VH with S84N, S88A, S110L
VL: B1 VL with V3Q, T63S
B13: VH2/Vκ4 (antibody, V domains shown)
VH: B1 VH with S84N, S88A, S110L
VL: B1 VL with V3Q, K24R, T63S, F87Y
B14: VH2/Vκ5 (antibody, V domains shown)
VH: B1 VH with S84N, S88A, S110L
VL: B1 VL with V3Q, K24R, T63S, V85T, F87Y
B15: VH3/Vκ1 (antibody, V domains shown)
VH: B1 VH with P61A, S84N, S88A, S110L
VL: B1 VL with T10F, A80S
B16: VH3/Vκ2 (antibody, V domains shown)
VH: B1 VH with P61A, S84N, S88A, S110L
VL: B1 VL
B17: VH3/Vκ3 (antibody, V domains shown)
VH: B1 VH with P61A, S84N, S88A, S110L
VL: B1 VL with V3Q, T63S
B18: VH3/Vκ4 (antibody, V domains shown)
VH: B1 VH with P61A, S84N, S88A, S110L
VL: B1 VL with V3Q, K24R, T63S, F87Y
B19: VH3/Vκ5 (antibody, V domains shown)
VH: B1 VH with P61A, S84N, S88A, S110L
VL: B1 VL with V3Q, K24R, T63S, V85T, F87Y
B20: VH5/Vκ6 (antibody, V domains shown)
VH: B1 VH with A40T, G42E, G44R
VL: B1 VL with T10F, Q42K, P43A, A80S
notes: Redesigned variant; cloned into the appropriate expression vector (IgG4v1 and kappa were used in the first round), HEK EBNA supernatant
B21: VH5/Vκ7 (antibody, V domains shown)
VH: B1 VH with A40T, G42E, G44R
VL: B1 VL with V3Q, Q42K, P43A, T63S
notes: as for B20
B22: VH7/Vκ6 (antibody, V domains shown)
VH: B1 VH with A40T, G42E, G44R, S84N, S88A, S110L
VL: B1 VL with T10F, Q42K, P43A, A80S
notes: as for B20
B23: VH1/Vκ0 (control) (antibody, V domains shown)
VH: B1 VH
VL: DIVMTQSHKFMSTSVGDRVSITCKASQDVGTAVAWYQQKPGQSPKLLIYWASTRHTGVPDRFTGSGSGTDFTLTITNVQSEDLAVYFCHQHSSNPLTFGAGTKLELK
B24: VH5/Vκ0 (antibody, V domains shown)
VH: B1 VH with A40T, G42E, G44R
VL: B23 VL
notes: as for B4
B25: VH6/Vκ0 (antibody, V domains shown)
VH: B1 VH with G44R, S84N, S88A, S110L
VL: B23 VL
notes: as for B4
B26: VH7/Vκ0 (antibody, V domains shown)
VH: B1 VH with A40T, G42E, G44R, S84N, S88A, S110L
VL: B23 VL
notes: as for B4

Tests used:
[1] = target: T1, Homo sapiens factor Bb protein (human, UniProt P00751 260-764); assay: SPR single cycle kinetics; ratio against VH0/Vκ0
T1 construct: Bought from CompTech (A155); also called complement factor Bb; human factor Bb
T1 sequence (P00751 260-764 limits assumed): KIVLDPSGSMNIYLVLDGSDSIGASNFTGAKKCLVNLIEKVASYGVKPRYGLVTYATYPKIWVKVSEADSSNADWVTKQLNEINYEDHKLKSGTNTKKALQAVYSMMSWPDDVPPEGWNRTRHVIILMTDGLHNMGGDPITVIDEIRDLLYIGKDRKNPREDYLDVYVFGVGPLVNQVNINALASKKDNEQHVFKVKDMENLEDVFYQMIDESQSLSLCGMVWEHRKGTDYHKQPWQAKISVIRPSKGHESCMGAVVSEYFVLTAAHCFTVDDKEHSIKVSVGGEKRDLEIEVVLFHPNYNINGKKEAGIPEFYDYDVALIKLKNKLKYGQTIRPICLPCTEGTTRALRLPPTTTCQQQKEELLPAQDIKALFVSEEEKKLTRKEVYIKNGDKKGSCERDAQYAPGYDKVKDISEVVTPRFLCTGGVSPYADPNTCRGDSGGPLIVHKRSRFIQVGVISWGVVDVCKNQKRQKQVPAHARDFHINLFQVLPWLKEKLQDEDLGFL
Protocol: (§1) In order to assess the binding of all humanized variants, single cycle kinetic analysis was performed on supernatants from transfected cell cultures. […] All single cycle kinetic experiments were run at 25° C. with HBS-P+running buffer (pH 7. 4) (GE Healthcare, Little Chalfont, UK).
(§2) Antibodies were diluted in running buffer to a final concentration of 1 μg/ml, based on concentrations assessed by ELISA titer. At the start of each cycle, antibodies were loaded onto Fc2, Fc3 and Fc4 of the Protein A chip (GE Healthcare, Little Chalfont, UK). IgGs were captured at a flow rate of 10 μl/min to give an immobilization level (RL) of ˜63 RU, the theoretical value to obtain an Rmax of ˜50 RU. The surface was then allowed to stabilize. Single cycle kinetic data was obtained with factor Bb (CompTech, Tyler, USA) as the analyte at a flow rate of 30 μl/min to minimize any potential mass transport limitations. Multiple repeats with the reference chimeric antibody were performed to check the stability of the surface and analyte over the kinetic cycles. The signal from the reference channel Fc1 (no antibody) was subtracted from that of Fc2, Fc3 and Fc4 to correct for differences in non-specific binding to a reference surface. A four point, two-fold dilution range from 0. 78 nM to 6. 25 nM factor Bb without regeneration between each concentration was used. The association phase for the four injections of increasing concentrations of factor Bb was monitored for 200 seconds each time and a single dissociation phase was measured for 200 seconds following the last injection of factor Bb. Regeneration of the Protein A surface was conducted using two injections of 10 mM glycine-HCL pH 1. 5.
(§3) The sensorgrams and fitted data for the single cycle kinetics are shown in FIGS. 1A-1D and the kinetic parameters measured for the interaction of factor Bb with each antibody are shown in Table 7. The relative KD was calculated by dividing the KD of the VH0/Vκ0 reference antibody by that of the humanized variant assayed in the same experiment.

[2] = target: T1, Homo sapiens factor Bb protein; assay: SPR single cycle kinetics, IgG on Protein A chip, factor Bb analyte
Protocol: as §1, §2, §3

[3] = target: T1, Homo sapiens factor Bb protein; assay: as above; remark: listed apart in the source
Protocol: as §1, §2
Single cycle kinetics using cell culture supernatants were performed as described above.

[4] = target: T1, Homo sapiens factor Bb protein; assay: SPR single cycle kinetics; ratio against VH0/Vκ0; remark: listed apart in the source
Protocol: All single cycle kinetic experiments were run at 25° C. with HBS-P+running buffer (pH 7. 4) (GE Healthcare, Little Chalfont, UK).
as §2
Single cycle kinetics using cell culture supernatants were performed as described above. […] The relative KD was calculated by dividing the KD of the VH0/Vκ0 reference antibody by that of the humanized variant assayed in the same experiment.

Binder | Relative KD [1] | Kd [2] [nM] | koff [2] [s⁻¹] | kon [2] [M⁻¹ s⁻¹] | Kd [3] [nM] | koff [3] [s⁻¹] | kon [3] [M⁻¹ s⁻¹] | Relative KD [4]
B1 | 2.97 | 5.22 | 0.00251 | 481000 |  |  |  | 
B2 | 1.52 | 2.68 | 0.00157 | 586000 |  |  |  | 
B3 |  |  |  |  | 2.27 | 0.00128 | 563000 | 1.28
B4 |  |  |  |  | 2.37 | 0.00126 | 534000 | 1.34
B5 |  |  |  |  | 2.11 | 0.00105 | 496000 | 1.19
B6 | 2.85 | 5.01 | 0.00287 | 574000 |  |  |  | 
B7 | 2.22 | 3.9 | 0.00263 | 675000 |  |  |  | 
B8 | 3.7 | 6.52 | 0.00294 | 451000 |  |  |  | 
B9 | 5.09 | 8.96 | 0.00201 | 225000 |  |  |  | 
B10 | 11.8 | 20.7 | 0.00373 | 180000 |  |  |  | 
B11 | 7.9 | 13.9 | 0.00326 | 234000 |  |  |  | 
B12 | 6.93 | 12.2 | 0.00307 | 252000 |  |  |  | 
B13 | 6.19 | 10.9 | 0.00368 | 339000 |  |  |  | 
B14 | 9.43 | 16.6 | 0.00375 | 225000 |  |  |  | 
B15 | 7.9 | 13.9 | 0.00404 | 291000 |  |  |  | 
B16 | 9.09 | 16 | 0.00377 | 236000 |  |  |  | 
B17 | 8.47 | 14.9 | 0.00329 | 220000 |  |  |  | 
B18 | 9.83 | 17.3 | 0.0046 | 267000 |  |  |  | 
B19 | 8.98 | 15.8 | 0.00451 | 285000 |  |  |  | 
B20 |  |  |  |  | 130 | 0.0173 | 133000 | 73.5
B21 |  |  |  |  | 521 | 0.00166 | 3200 | 294
B22 |  |  |  |  | 18 | 0.00303 | 168000 | 10.2
B23 | 1.76 | 3.09 | 0.00116 | 376000 |  |  |  | 
B24 |  |  |  |  | 416 | 0.00145 | 3490 | 235
B25 |  |  |  |  | 3.29 | 0.00197 | 598000 | 1.86
B26 |  |  |  |  | 7.53 | 0.00207 | 274000 | 4.25
